Assay results published in PMC5976439.

Legend:
[1] = molecular target: wild type mononucleosome (recombinant Xenopus laevis histone octamer on 601 DNA) (Xenopus laevis)
[2] = molecular target: wild type mononucleosome (recombinant Xenopus laevis histone octamer on 601 DNA) (Xenopus laevis); remark: listed apart in the source
[3] = molecular target: APM (acidic patch mutant) mononucleosome, H2A E61A, E64A, D90A, D92A (Xenopus laevis)

“LANA peptide (from the latency associated nuclear antigen of Kaposi's sarcoma-associated herpesvirus)” was tested, and the reduction of the rate constant of remodeling of WT nucleosomes by sub-saturating SNF2h, dose-dependent, up to 50 µM LANA peptide; the pair that is blocked: SNF2h and the nucleosome [1] was 200 fold.
Work on “SNF2h (human ISWI ATPase), purified from E. coli (from UniProt O60264 1-1052) (enzyme)” yielded an apparent Km (KM^app) of the gel remodeling rate against SNF2h concentration, 0/60 WT nucleosomes, cooperative binding model [2] of 0.061 µM and an apparent Km (KM^app) of the gel remodeling rate against SNF2h concentration, 0/60 APM nucleosomes, cooperative binding model [3] of 0.28 µM.
